Reference: paper PMC9275217, “Improvement of Fusel Alcohol Production by Engineering of the Yeast Branched-Chain Amino Acid Aminotransaminase” (Applied and Environmental Microbiology, 2022)

T1: Bat1ΔN16^WT (Saccharomyces cerevisiae, UniProt P38891, G333S)
T1 construct: gene BAT1; first 16 residues (mitochondrial-targeting signal) removed; N-terminal His-tag (pET53-dest, tag not reported cut); E. coli BL21(DE3); dimer
T1 sequence (P38891 17-393 G333S): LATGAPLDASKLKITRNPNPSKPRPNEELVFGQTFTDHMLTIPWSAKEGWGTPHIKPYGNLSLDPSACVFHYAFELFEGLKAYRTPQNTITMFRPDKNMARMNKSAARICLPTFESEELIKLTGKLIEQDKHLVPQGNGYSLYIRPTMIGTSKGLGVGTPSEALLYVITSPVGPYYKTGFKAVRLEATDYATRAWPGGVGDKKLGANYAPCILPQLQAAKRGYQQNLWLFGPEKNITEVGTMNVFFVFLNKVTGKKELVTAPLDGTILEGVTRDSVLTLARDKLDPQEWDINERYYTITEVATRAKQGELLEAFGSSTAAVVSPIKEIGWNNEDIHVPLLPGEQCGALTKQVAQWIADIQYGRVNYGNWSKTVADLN

T2: Bat1ΔN16^WT (Saccharomyces cerevisiae, UniProt P38891)
T2 construct: gene BAT1; first 16 residues (mitochondrial-targeting signal) removed; N-terminal His-tag (pET53-dest, tag not reported cut); E. coli BL21(DE3); dimer
T2 sequence (P38891 17-393): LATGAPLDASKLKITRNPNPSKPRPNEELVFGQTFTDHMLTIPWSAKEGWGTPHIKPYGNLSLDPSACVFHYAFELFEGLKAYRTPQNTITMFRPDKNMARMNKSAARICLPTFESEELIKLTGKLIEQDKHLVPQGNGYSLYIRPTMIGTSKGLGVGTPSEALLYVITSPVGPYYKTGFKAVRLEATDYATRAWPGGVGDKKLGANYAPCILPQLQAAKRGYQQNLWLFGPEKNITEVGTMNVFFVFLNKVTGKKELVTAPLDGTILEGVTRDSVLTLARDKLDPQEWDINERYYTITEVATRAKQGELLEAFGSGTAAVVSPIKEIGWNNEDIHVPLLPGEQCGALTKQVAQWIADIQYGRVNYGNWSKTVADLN

B1: Bat1ΔN16^WT (Saccharomyces cerevisiae S288C) (protein)
chain: LATGAPLDASKLKITRNPNPSKPRPNEELVFGQTFTDHMLTIPWSAKEGWGTPHIKPYGNLSLDPSACVFHYAFELFEGLKAYRTPQNTITMFRPDKNMARMNKSAARICLPTFESEELIKLTGKLIEQDKHLVPQGNGYSLYIRPTMIGTSKGLGVGTPSEALLYVITSPVGPYYKTGFKAVRLEATDYATRAWPGGVGDKKLGANYAPCILPQLQAAKRGYQQNLWLFGPEKNITEVGTMNVFFVFLNKVTGKKELVTAPLDGTILEGVTRDSVLTLARDKLDPQEWDINERYYTITEVATRAKQGELLEAFGSGTAAVVSPIKEIGWNNEDIHVPLLPGEQCGALTKQVAQWIADIQYGRVNYGNWSKTVADLN
notes: first 16 residues (mitochondrial-targeting signal) removed; N-terminal His-tag (pET53-dest, tag not reported cut); E. coli BL21(DE3); dimer
B2: Bat1ΔN16^WT (Saccharomyces cerevisiae S288C; G333S) (protein)
chain: LATGAPLDASKLKITRNPNPSKPRPNEELVFGQTFTDHMLTIPWSAKEGWGTPHIKPYGNLSLDPSACVFHYAFELFEGLKAYRTPQNTITMFRPDKNMARMNKSAARICLPTFESEELIKLTGKLIEQDKHLVPQGNGYSLYIRPTMIGTSKGLGVGTPSEALLYVITSPVGPYYKTGFKAVRLEATDYATRAWPGGVGDKKLGANYAPCILPQLQAAKRGYQQNLWLFGPEKNITEVGTMNVFFVFLNKVTGKKELVTAPLDGTILEGVTRDSVLTLARDKLDPQEWDINERYYTITEVATRAKQGELLEAFGSSTAAVVSPIKEIGWNNEDIHVPLLPGEQCGALTKQVAQWIADIQYGRVNYGNWSKTVADLN
notes: as for B1
B3: Bat2^WT (Saccharomyces cerevisiae S288C; G316S) (protein)
chain: MTLAPLDASKVKITTTQHASKPKPNSELVFGKSFTDHMLTAEWTAEKGWGTPEIKPYQNLSLDPSAVVFHYAFELFEGMKAYRTVDNKITMFRPDMNMKRMNKSAQRICLPTFDPEELITLIGKLIQQDKCLVPEGKGYSLYIRPTLIGTTAGLGVSTPDRALLYVICCPVGPYYKTGFKAVRLEATDYATRAWPGGCGDKKLGANYAPCVLPQLQAASRGYQQNLWLFGPNNNITEVGTMNAFFVFKDSKTGKKELVTAPLDGTILEGVTRDSILNLAKERLEPSEWTISERYFTIGEVTERSKNGELLEAFGSSTAAIVSPIKEIGWKGEQINIPLLPGEQTGPLAKEVAQWINGIQYGETEHGNWSRVVTDLN
notes: N-terminal His-tag (pET53-dest, tag not reported cut); E. coli BL21(DE3); dimer
B4: Bat2^WT (Saccharomyces cerevisiae S288C) (protein)
chain: MTLAPLDASKVKITTTQHASKPKPNSELVFGKSFTDHMLTAEWTAEKGWGTPEIKPYQNLSLDPSAVVFHYAFELFEGMKAYRTVDNKITMFRPDMNMKRMNKSAQRICLPTFDPEELITLIGKLIQQDKCLVPEGKGYSLYIRPTLIGTTAGLGVSTPDRALLYVICCPVGPYYKTGFKAVRLEATDYATRAWPGGCGDKKLGANYAPCVLPQLQAASRGYQQNLWLFGPNNNITEVGTMNAFFVFKDSKTGKKELVTAPLDGTILEGVTRDSILNLAKERLEPSEWTISERYFTIGEVTERSKNGELLEAFGSGTAAIVSPIKEIGWKGEQINIPLLPGEQTGPLAKEVAQWINGIQYGETEHGNWSRVVTDLN
notes: as for B3

How the values were obtained:
Bat1ΔN16^WT [1] = target: T1, Bat1ΔN16^WT; assay: NADH absorbance […] nm, coupled to glutamate dehydrogenase; assay type: biochemical; conditions: reverse reaction; 2 mM KG, 5 mM NAD+, 50 μM PLP, 200 mM potassium phosphate pH 8.5, 30°C; apparent
Bat1ΔN16^WT [2] = target: T2, Bat1ΔN16^WT; assay: as above; assay type: biochemical; conditions: reverse reaction; 2 mM KG, 5 mM NAD+, 50 μM PLP, 200 mM potassium phosphate pH 8.5, 30°C; apparent
purified protein [3] = substrate: CC(C)[C@H](N)C(=O)O; assay: purified protein; conditions: reverse reaction, 2 mM KG, 5 mM NAD+, 50 μM PLP, 200 mM potassium phosphate pH 8.5, 30°C, apparent
purified protein [4] = substrate: CC[C@H](C)[C@H](N)C(=O)O; assay: purified protein; conditions: reverse reaction, 2 mM KG, 5 mM NAD+, 50 μM PLP, 200 mM potassium phosphate pH 8.5, 30°C, apparent
purified protein [5] = substrate: CC(C)C(=O)C(=O)O; assay: purified protein; assay type: biochemical, Saccharomyces cerevisiae; conditions: forward reaction, 100 mM Glu, 50 μM PLP, 100 mM NH4Cl, 0.25 mM NADH, 200 mM potassium phosphate pH 8.0, 30°C, apparent
purified protein [6] = substrate: CC[C@H](C)C(=O)C(=O)O; assay: purified protein; assay type: biochemical, Saccharomyces cerevisiae; conditions: forward reaction, 100 mM Glu, 50 μM PLP, 100 mM NH4Cl, 0.25 mM NADH, 200 mM potassium phosphate pH 8.0, 30°C, apparent
purified protein [7] = substrate: CC(C)CC(=O)C(=O)O; assay: purified protein; assay type: biochemical, Saccharomyces cerevisiae; conditions: forward reaction, 100 mM Glu, 50 μM PLP, 100 mM NH4Cl, 0.25 mM NADH, 200 mM potassium phosphate pH 8.0, 30°C, apparent
purified protein [8] = substrate: CC(C)C[C@H](N)C(=O)O; assay: purified protein; conditions: reverse reaction, 2 mM KG, 5 mM NAD+, 50 μM PLP, 200 mM potassium phosphate pH 8.5, 30°C, apparent

Row | Molecule | Km (Bat1ΔN16^WT [1]) [mM] | Km (Bat1ΔN16^WT [2]) [mM] | Km (purified protein [3]) [µM] | kcat (purified protein [3]) [s⁻¹] | kcat/Km (purified protein [3]) [M⁻¹ s⁻¹] | Km (purified protein [4]) [µM] | kcat (purified protein [4]) [s⁻¹] | kcat/Km (purified protein [4]) [M⁻¹ s⁻¹] | Km (purified protein [5]) [µM] | kcat (purified protein [5]) [s⁻¹] | kcat/Km (purified protein [5]) [M⁻¹ s⁻¹] | Km (purified protein [6]) [µM] | kcat (purified protein [6]) [s⁻¹] | kcat/Km (purified protein [6]) [M⁻¹ s⁻¹] | Km (purified protein [7]) [µM] | kcat (purified protein [7]) [s⁻¹] | kcat/Km (purified protein [7]) [M⁻¹ s⁻¹] | Km (purified protein [8]) [µM] | kcat (purified protein [8]) [s⁻¹] | kcat/Km (purified protein [8]) [M⁻¹ s⁻¹]
1 | CC(C)C[C@H](N)C(=O)O [Leu] | 3.08 ± 1.42 | 0.285 ± 0.0679 | – | – | – | – | – | – | – | – | – | – | – | – | – | – | – | – | – | –
2 | B1 | – | – | 454 ± 123 | 3.37 | 7420 | 220 ± 102 | 3.74 | 17000 | 298 ± 100 | 9.55 ± 1.92 | 32100 | 218 ± 111 | 4.73 ± 1.29 | 21700 | 323 ± 101 | 15.4 ± 2.92 | 47700 | – | – | –
3 | B2 | – | – | – | – | – | – | – | – | – | – | – | – | – | – | 1570 ± 505 | 4.95 ± 0.945 | 3150 | – | – | –
4 | B3 | – | – | 13300 ± 3440 | 1.4 | 106 | 3400 ± 1140 | 1.8 | 529 | 1730 ± 826 | 1.79 ± 0.521 | 1030 | 308 ± 134 | 2.01 ± 0.282 | 6530 | 681 ± 189 | 5.42 ± 0.615 | 7960 | 3890 ± 1060 | 1.61 | 414
5 | B4 | – | – | 511 ± 111 | 2.71 | 5300 | 119 ± 38.9 | 2.61 | 21900 | 180 ± 44.4 | 8.05 ± 1.02 | 44700 | 150 ± 59.4 | 5.48 ± 1.04 | 36500 | 212 ± 61 | 11.6 ± 1.82 | 54700 | 189 ± 60 | 2.3 | 12200
